Results as given in patent US20250163162A1.

T1: IL10Rα and IL2Rγ on human primary cells (CD8 T cells, CD4 T cells, monocytes) (human) (UniProt Q13651)
T1 sequence (looked up) 1: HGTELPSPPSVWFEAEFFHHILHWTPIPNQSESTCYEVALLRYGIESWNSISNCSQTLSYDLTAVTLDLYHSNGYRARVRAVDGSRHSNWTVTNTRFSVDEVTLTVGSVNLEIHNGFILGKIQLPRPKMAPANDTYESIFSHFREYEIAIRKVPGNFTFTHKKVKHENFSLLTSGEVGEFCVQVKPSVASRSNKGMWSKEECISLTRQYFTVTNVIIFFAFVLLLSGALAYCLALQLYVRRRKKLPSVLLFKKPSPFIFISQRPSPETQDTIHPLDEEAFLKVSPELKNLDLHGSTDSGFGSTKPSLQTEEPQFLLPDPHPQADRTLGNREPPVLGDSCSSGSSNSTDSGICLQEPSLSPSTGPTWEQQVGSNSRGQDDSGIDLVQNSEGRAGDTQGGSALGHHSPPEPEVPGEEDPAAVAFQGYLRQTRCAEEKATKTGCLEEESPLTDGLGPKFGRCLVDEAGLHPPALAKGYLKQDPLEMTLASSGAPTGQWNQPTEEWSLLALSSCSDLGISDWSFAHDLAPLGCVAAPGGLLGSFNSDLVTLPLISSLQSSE
T1 sequence (looked up) 2: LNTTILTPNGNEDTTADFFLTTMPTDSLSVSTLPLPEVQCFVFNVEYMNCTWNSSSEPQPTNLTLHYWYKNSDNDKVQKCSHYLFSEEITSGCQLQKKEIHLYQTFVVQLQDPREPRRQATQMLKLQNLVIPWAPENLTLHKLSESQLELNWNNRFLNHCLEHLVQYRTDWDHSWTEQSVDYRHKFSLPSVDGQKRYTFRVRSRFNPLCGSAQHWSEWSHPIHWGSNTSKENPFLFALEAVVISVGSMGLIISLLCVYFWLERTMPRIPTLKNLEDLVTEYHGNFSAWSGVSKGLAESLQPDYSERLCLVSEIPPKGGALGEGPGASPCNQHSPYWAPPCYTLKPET

B1: hIL10Ra_VHH14-hIL2Rg_VHH19, no linker, tag his (bispecific antibody, not shown: small tags and cut ends)
chain: QVQLQESGGGSVQAGGSLRLSCGASGYTYSSYCMGWFRQVPGKEREGVAVIDSDGSTSYADSVKGRFTISKDNGKNTLYLQMNSLKPEDTAMYYCAADLGHYRPPCGVLYLGMDYWGKGTQVTVSSQVQLQESGGGSVQAGGSLRLSCTASGFTFDDREMNWYRQAPGNECELVSTISSDGSTYYADSVKGRFTISQDNAKNTVYLQMDSVKPEDTAVYYCAADFMIAIQAPGAGCWGQGTQVTVSS
B2: hIL10Ra_VHH14-hIL2Rg_VHH19, linker GS, tag his (bispecific antibody, not shown: small tags and cut ends)
chain: QVQLQESGGGSVQAGGSLRLSCGASGYTYSSYCMGWFRQVPGKEREGVAVIDSDGSTSYADSVKGRFTISKDNGKNTLYLQMNSLKPEDTAMYYCAADLGHYRPPCGVLYLGMDYWGKGTQVTVSSGSQVQLQESGGGSVQAGGSLRLSCTASGFTFDDREMNWYRQAPGNECELVSTISSDGSTYYADSVKGRFTISQDNAKNTVYLQMDSVKPEDTAVYYCAADFMIAIQAPGAGCWGQGTQVTVSS
B3: hIL10Ra_VHH14-hIL2Rg_VHH19, linker …, tag his (bispecific antibody, not shown: small tags and cut ends)
chain: QVQLQESGGGSVQAGGSLRLSCGASGYTYSSYCMGWFRQVPGKEREGVAVIDSDGSTSYADSVKGRFTISKDNGKNTLYLQMNSLKPEDTAMYYCAADLGHYRPPCGVLYLGMDYWGKGTQVTVSSGGSGGSGGSGQVQLQESGGGSVQAGGSLRLSCTASGFTFDDREMNWYRQAPGNECELVSTISSDGSTYYADSVKGRFTISQDNAKNTVYLQMDSVKPEDTAVYYCAADFMIAIQAPGAGCWGQGTQVTVSS
B4: hIL10Ra_VHH14-hIL2Rg_VHH19, linker GGGS, tag his (bispecific antibody, not shown: small tags and cut ends)
chain: QVQLQESGGGSVQAGGSLRLSCGASGYTYSSYCMGWFRQVPGKEREGVAVIDSDGSTSYADSVKGRFTISKDNGKNTLYLQMNSLKPEDTAMYYCAADLGHYRPPCGVLYLGMDYWGKGTQVTVSSGGGSQVQLQESGGGSVQAGGSLRLSCTASGFTFDDREMNWYRQAPGNECELVSTISSDGSTYYADSVKGRFTISQDNAKNTVYLQMDSVKPEDTAVYYCAADFMIAIQAPGAGCWGQGTQVTVSS
B5: hIL10Ra_VHH14-hIL2Rg_VHH19, linker GGGSGGGS, tag his (bispecific antibody, not shown: small tags and cut ends)
chain: QVQLQESGGGSVQAGGSLRLSCGASGYTYSSYCMGWFRQVPGKEREGVAVIDSDGSTSYADSVKGRFTISKDNGKNTLYLQMNSLKPEDTAMYYCAADLGHYRPPCGVLYLGMDYWGKGTQVTVSSGGGSGGGSQVQLQESGGGSVQAGGSLRLSCTASGFTFDDREMNWYRQAPGNECELVSTISSDGSTYYADSVKGRFTISQDNAKNTVYLQMDSVKPEDTAVYYCAADFMIAIQAPGAGCWGQGTQVTVSS
B6: hIL10Ra_VHH14-hIL2Rg_VHH19, linker GGSGGS, tag his (bispecific antibody, not shown: small tags and cut ends)
chain: QVQLQESGGGSVQAGGSLRLSCGASGYTYSSYCMGWFRQVPGKEREGVAVIDSDGSTSYADSVKGRFTISKDNGKNTLYLQMNSLKPEDTAMYYCAADLGHYRPPCGVLYLGMDYWGKGTQVTVSSGGSGGSQVQLQESGGGSVQAGGSLRLSCTASGFTFDDREMNWYRQAPGNECELVSTISSDGSTYYADSVKGRFTISQDNAKNTVYLQMDSVKPEDTAVYYCAADFMIAIQAPGAGCWGQGTQVTVSS

Target: T1, IL10Rα and IL2Rγ on human primary cells (CD8 T cells, CD4 T cells, monocytes) (human)
Test: cell-based or functional assay

In order of rising pSTAT3 (MFI) in CD4 T cells at 0.0001 µM:
1. B5  10700 MFI
2. B2  11700 MFI
3. B4  11900 MFI
4. B1  12200 MFI
5. B3  12800 MFI
6. B6  13200 MFI

In order of rising pSTAT3 (MFI) in CD4 T cells at 0.001 µM:
1. B3  11800 MFI
2. B4  12100 MFI
3. B2  12800 MFI
4. B1  12900 MFI
5. B6  13900 MFI

In order of falling pSTAT3 (MFI) in CD4 T cells at 0.01 µM:
1. B2  13600 MFI
2. B6  12800 MFI
3. B1  12500 MFI
4. B4  11700 MFI
5. B3  11100 MFI
6. B5  9550 MFI

In order of rising pSTAT3 (MFI) in CD4 T cells at 0.1 µM:
1. B4  9670 MFI
2. B3  10200 MFI
3. B2  10900 MFI
4. B1  11000 MFI
5. B5  11300 MFI
6. B6  13600 MFI

In order of rising pSTAT3 (MFI) in CD4 T cells at 1 µM:
1. B4  9590 MFI
2. B3  9970 MFI
3. B1  12100 MFI
4. B5  12700 MFI
5. B2  12900 MFI
6. B6  13000 MFI

In order of falling pSTAT3 (MFI) in CD4 T cells at 10 µM:
1. B5  13200 MFI
2. B2  12600 MFI
3. B1  11800 MFI
4. B6  11800 MFI
5. B3  11400 MFI
6. B4  11400 MFI

In order of falling pSTAT3 (MFI) in CD4 T cells at 100 µM:
1. B4  14700 MFI
2. B2  11600 MFI
3. B5  11600 MFI
4. B3  10300 MFI
5. B6  10200 MFI
6. B1  9040 MFI

In order of rising pSTAT3 (MFI) in CD8 T cells at 0.0001 µM:
1. B5  7060 MFI
2. B4  7210 MFI
3. B1  7380 MFI
4. B2  7400 MFI
5. B3  7840 MFI
6. B6  7960 MFI

In order of falling pSTAT3 (MFI) in CD8 T cells at 0.001 µM:
1. B6  8500 MFI
2. B2  8110 MFI
3. B1  7740 MFI
4. B3  7520 MFI
5. B5  7520 MFI
6. B4  7460 MFI

In order of falling pSTAT3 (MFI) in CD8 T cells at 0.01 µM:
1. B2  8110 MFI
2. B1  7800 MFI
3. B6  7660 MFI
4. B4  7200 MFI
5. B3  6920 MFI
6. B5  6330 MFI

In order of rising pSTAT3 (MFI) in CD8 T cells at 0.1 µM:
1. B4  6580 MFI
2. B1  6780 MFI
3. B3  6780 MFI
4. B5  7070 MFI
5. B2  7100 MFI
6. B6  8160 MFI

In order of rising pSTAT3 (MFI) in CD8 T cells at 1 µM:
1. B3  6480 MFI
2. B4  6500 MFI
3. B1  7720 MFI
4. B6  7720 MFI
5. B5  7870 MFI
6. B2  8200 MFI

In order of rising pSTAT3 (MFI) in CD8 T cells at 10 µM:
1. B3  7330 MFI
2. B1  7490 MFI
3. B4  7930 MFI
4. B6  8300 MFI
5. B2  8410 MFI
6. B5  8430 MFI

In order of rising pSTAT3 (MFI) in CD8 T cells at 100 µM:
1. B1  6200 MFI
2. B3  6930 MFI
3. B6  7000 MFI
4. B2  7900 MFI
5. B5  7970 MFI
6. B4  9970 MFI

In order of falling pSTAT3 (MFI) in monocytes at 0.0001 µM:
1. B5  4670 MFI
2. B3  4230 MFI
3. B6  4220 MFI
4. B4  4150 MFI
5. B2  4040 MFI
6. B1  3970 MFI

In order of rising pSTAT3 (MFI) in monocytes at 0.001 µM:
1. B4  4510 MFI
2. B1  4600 MFI
3. B6  4680 MFI
4. B3  4710 MFI
5. B2  4820 MFI
6. B5  4820 MFI

In order of falling pSTAT3 (MFI) in monocytes at 0.01 µM:
1. B3  4700 MFI
2. B6  4560 MFI
3. B1  4420 MFI
4. B4  4360 MFI
5. B5  4360 MFI
6. B2  4010 MFI

In order of falling pSTAT3 (MFI) in monocytes at 0.1 µM:
1. B3  4690 MFI
2. B6  4470 MFI
3. B2  4430 MFI
4. B1  4420 MFI
5. B5  4420 MFI
6. B4  4280 MFI

In order of rising pSTAT3 (MFI) in monocytes at 1 µM:
1. B1  4480 MFI
2. B3  4620 MFI
3. B4  4640 MFI
4. B6  4750 MFI
5. B5  4760 MFI
6. B2  4790 MFI

In order of rising pSTAT3 (MFI) in monocytes at 10 µM:
1. B1  4330 MFI
2. B3  4550 MFI
3. B4  4840 MFI
4. B5  4880 MFI
5. B6  4890 MFI
6. B2  4930 MFI

In order of rising pSTAT3 (MFI) in monocytes at 100 µM:
1. B1  4140 MFI
2. B5  4620 MFI
3. B6  4730 MFI
4. B3  4860 MFI
5. B4  4880 MFI
6. B2  4930 MFI

With B5 the pSTAT3 (MFI) in CD4 T cells at 0.0013 µM was 12000 MFI.
